From article PMC6077200

Target: nicotinic acetylcholine receptors containing subunits α7, α9 and α10 of monocytic U937 cells (human (endogenous in U937)) (UniProt P36544)

B1: purified human endogenous C-reactive protein (natural protein)
chain: QTDMSRKAFVFPKESDTSYVSLKAPLTKPLKAFTVCLHFYTELSSTRGYSIFSYATKRQDNEILIFWSKDIGYSFTVGGSEILFEVPEVTVAPVHICTSWESASGIVEFWVDGKPRVRKSLKKGYTVGAEASIILGQEQDSFGGNFEGSQSLVGDIGNVNMWDFVLSPDEINTIYLGGPFSPNVLNWRALKYEVQGEVFTKPQLWP
  IC50 of eCRP for inhibition of BzATP-induced (100 µM) IL-1β release from LPS-primed U937 cells (the paper says this corresponds to about 40 nM pentameric CRP): 4.9 µg/mL
